# Measurements from IntAct's records for PubMed 18477457.
# B1: Protein pop-1 (Caenorhabditis elegans), Q10666 (parent)
# chain: MMADEELGDEVKVFRRDEDADDDPMISGETSEQQLADDKKEAVMEAELDGAGRNPSIDVLKSAFPKVEPMSPSFPGLMSHFSPGYSAAALPMFMPLFMNPYAAALRSPSLMFPMGAMSPTFPMFPPSPVYGAAIAAAAAKQHFENMAPLNMRAGHPMNQMGMPPYMHPSSMAPQNVDRRAQGGGKAKKDDHVKKPLNAFMWFMKENRKALLEEIGNNEKQSAELNKELGKRWHDLSKEEQAKYFEMAKKDKETHKERYPEWSARENYAVNKKKTKKRRDKSIPSENNDQKKCRARFGVNNTEMWCKFCKRKKKCEYATDRSGGSDITDSQDGRGTSGAYSSSSESPSPKANAGIALTTQQQQAAMMHTMLMQMRLGSTTGASTHVPSPLASSSAGRSPLDANASDSESDVEEEEDEQIDPTVMQQTHDMLMQESMCTI
# partner: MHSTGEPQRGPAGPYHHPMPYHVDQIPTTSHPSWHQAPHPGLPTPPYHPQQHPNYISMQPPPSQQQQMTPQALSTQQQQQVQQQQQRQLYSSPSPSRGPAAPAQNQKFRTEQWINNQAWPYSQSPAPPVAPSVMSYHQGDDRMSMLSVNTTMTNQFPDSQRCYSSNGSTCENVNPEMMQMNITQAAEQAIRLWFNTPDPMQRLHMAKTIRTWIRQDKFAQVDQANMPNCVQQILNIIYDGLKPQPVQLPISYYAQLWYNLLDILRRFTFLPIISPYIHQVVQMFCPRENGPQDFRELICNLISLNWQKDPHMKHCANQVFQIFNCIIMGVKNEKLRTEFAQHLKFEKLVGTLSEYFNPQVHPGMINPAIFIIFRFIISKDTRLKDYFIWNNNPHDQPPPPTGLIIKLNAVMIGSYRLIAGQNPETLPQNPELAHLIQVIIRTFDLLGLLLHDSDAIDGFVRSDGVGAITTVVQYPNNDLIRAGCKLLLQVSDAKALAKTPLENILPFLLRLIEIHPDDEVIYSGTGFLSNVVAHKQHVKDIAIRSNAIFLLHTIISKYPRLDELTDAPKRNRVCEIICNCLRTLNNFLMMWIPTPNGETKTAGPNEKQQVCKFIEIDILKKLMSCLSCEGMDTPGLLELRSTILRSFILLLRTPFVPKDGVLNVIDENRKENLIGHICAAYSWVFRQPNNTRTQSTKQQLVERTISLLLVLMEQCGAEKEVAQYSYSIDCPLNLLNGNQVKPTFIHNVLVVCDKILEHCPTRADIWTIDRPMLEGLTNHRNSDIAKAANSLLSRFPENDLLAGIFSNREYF
# B2: Beta-catenin homolog sys-1 (Caenorhabditis elegans), Q9XVI2 (parent)
# chain: B1 partner
# partner: B1 chain
# Variants of: B1
# Settings: with ctnh1_caeel sys-1, Q9XVI2
row,Variant,effect of a mutation on the interaction
1,D9E,disrupting interaction strength

# Variants of: B2
# Settings: with pop1_caeel pop-1, Q10666
row,Variant,effect of a mutation on the interaction
1,A533L,disrupting interaction strength
2,K539A,disrupting interaction strength
